Biological target: GST-(TEV)-ZGRF1-(His)6 (human, UniProt Q86YA3 1-2104)
Test: pull-down

Sequence of GST-(TEV)-ZGRF1-(His)6 (Q86YA3 whole entry): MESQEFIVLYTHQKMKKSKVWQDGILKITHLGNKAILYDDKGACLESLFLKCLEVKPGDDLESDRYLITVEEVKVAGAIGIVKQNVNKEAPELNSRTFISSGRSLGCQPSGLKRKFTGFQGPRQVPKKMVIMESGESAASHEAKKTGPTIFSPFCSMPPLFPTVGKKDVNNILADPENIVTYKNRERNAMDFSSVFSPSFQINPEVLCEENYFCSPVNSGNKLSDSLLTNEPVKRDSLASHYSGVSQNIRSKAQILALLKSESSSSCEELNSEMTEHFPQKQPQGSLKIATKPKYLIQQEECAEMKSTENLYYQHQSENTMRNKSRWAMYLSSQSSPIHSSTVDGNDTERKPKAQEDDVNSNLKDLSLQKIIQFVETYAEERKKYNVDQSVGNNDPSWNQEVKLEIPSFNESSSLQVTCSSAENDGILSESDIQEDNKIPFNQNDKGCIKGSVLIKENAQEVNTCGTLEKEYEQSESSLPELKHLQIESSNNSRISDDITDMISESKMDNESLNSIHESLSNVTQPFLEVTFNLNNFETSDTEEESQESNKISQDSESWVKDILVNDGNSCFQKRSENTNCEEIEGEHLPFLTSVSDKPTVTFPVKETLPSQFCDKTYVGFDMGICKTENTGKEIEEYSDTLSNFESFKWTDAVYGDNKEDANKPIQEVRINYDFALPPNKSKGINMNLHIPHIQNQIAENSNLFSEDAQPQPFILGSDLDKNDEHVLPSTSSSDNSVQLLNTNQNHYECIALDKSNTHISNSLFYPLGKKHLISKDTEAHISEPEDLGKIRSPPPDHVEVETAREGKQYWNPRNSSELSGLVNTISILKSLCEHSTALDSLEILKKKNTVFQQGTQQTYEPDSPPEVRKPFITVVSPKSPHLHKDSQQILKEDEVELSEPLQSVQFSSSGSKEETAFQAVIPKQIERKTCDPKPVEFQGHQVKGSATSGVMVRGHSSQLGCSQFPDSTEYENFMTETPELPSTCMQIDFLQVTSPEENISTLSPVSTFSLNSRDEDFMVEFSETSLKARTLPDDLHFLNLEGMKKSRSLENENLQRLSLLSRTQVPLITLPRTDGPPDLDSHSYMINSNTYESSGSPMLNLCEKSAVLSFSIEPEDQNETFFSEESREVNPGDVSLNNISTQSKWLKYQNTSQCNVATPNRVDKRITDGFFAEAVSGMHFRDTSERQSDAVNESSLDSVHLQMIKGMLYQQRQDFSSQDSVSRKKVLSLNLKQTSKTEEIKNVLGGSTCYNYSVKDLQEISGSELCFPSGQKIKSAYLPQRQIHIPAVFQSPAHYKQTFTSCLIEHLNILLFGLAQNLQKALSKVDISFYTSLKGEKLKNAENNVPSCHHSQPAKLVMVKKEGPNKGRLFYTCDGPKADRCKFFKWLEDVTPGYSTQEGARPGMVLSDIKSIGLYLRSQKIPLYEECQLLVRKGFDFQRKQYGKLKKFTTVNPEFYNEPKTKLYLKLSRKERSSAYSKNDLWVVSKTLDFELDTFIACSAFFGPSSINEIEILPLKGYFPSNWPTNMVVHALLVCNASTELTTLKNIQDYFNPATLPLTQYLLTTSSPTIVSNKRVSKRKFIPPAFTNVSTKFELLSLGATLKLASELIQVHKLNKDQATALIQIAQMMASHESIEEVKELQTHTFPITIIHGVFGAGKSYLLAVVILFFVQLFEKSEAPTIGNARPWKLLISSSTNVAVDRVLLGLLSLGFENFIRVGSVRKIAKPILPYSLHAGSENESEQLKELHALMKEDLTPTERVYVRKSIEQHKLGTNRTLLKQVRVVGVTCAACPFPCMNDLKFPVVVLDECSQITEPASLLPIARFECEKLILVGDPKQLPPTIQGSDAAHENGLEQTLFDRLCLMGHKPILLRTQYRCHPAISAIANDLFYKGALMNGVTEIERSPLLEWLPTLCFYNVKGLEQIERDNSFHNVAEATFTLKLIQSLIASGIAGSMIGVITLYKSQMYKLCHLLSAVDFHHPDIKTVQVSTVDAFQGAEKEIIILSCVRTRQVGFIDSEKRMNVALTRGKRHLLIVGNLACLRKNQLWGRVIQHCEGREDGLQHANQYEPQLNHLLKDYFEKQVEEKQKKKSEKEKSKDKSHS

binding result: binds
B1: human RAD51 (natural protein, UniProt Q06609 1-339, looked up)
chain: MAMQMQLEANADTSVEEESFGPQPISRLEQCGINANDVKKLEEAGFHTVEAVAYAPKKELINIKGISEAKADKILAEAAKLVPMGFTTATEFHQRRSEIIQITTGSKELDKLLQGGIETGSITEMFGEFRTGKTQICHTLAVTCQLPIDRGGGEGKAMYIDTEGTFRPERLLAVAERYGLSGSDVLDNVAYARAFNTDHQTQLLYQASAMMVESRYALLIVDSATALYRTDYSGRGELSARQMHLARFLRMLLRLADEFGVAVVITNQVVAQVDGAAMFAADPKKPIGGNIIAHASTTRLYLRKGRGETRICKIYDSPCLPEAEAMFAINADGVGDAKD
